Data as given in the supplement of paper PMC10724198.
± gives the standard deviation of the averaged measurements.

Each sequence was assayed on Saccharomyces cerevisiae (assay: protein stability index of tFT-peptide fusion (C-terminal peptide) (PSI (0-1 scale)); higher = more stable (slower turnover)). Conditions: genetic background: wild type; temperature: 30 C.
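Also: PSI is a weighted mean of sequencing reads over stability bins, variants kept only with over 10 reads, mCherry proximal and sfGFP distal, peptide attached via GGGS linker.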

Sequence	protein stability index
LSLSILFTPSPN	0.682 ± 0.051
LSLSPPPASPIP	0.692 ± 0.011
LSPFPLFAPFNF	0.635 ± 0.039
LSPHSSLTPPPH	0.616 ± 0.037
LSPLPPDLPDLP	0.699 ± 0.12
LSPLPPSPPPST	0.543 ± 0.025
LSPPPPLALTPS	0.709 ± 0.021
LSPTPSAPPCFG	0.601 ± 0.043
LSRFLPESVYMS	0.679 ± 0.011
LSRFPSPPPLSH	0.701 ± 0.024
LSRLRVLLTPIS	0.56 ± 0.075
LSRVLQAPRRGG	0.681 ± 0.0075
LSSCLFDPIFLF	0.783 ± 0.018
LSSQCIVQLFRA	0.64 ± 0.025
LSSSTHNLDFLQ	0.698 ± 0.041
LSSTIFHRSCVR	0.759 ± 0.02
LSTCSFSFFLHT	0.66 ± 0.019
LSTSLPLSPPPP	0.652 ± 0.013
LSTTQSKTLNPR	0.682 ± 0.052
LSVFWRGSLWTL	0.635 ± 0.023
LSVMACGMGESI	0.696 ± 0.017
LSVVLARLCQGS	0.6842 ± 0.0052
LSYGQKARIKRE	0.703 ± 0.075

Sequence	protein stability index
LSYPPPPTQPPA	0.734 ± 0.0083
LTAFFPFSTFFP	0.714 ± 0.042
LTEFVVFFFFVF	0.5166 ± 0.0049
LTFILGPPRMWL	0.669 ± 0.018
LTFSVQCVYFDS	0.571
LTGESGDRSVGP	0.657 ± 0.019
LTPGFSRIDRAP	0.718 ± 0.062
LTRLAYGLATAL	0.664 ± 0.019
LTRQCLLPGWGL	0.707 ± 0.067
LTRSIKVWRAMR	0.686 ± 0.018
LTSPPRPAFVRV	0.636 ± 0.035
LTSSYSLCFLAP	0.696 ± 0.011
LTTPTIAKTREN	0.691 ± 0.016
LTVLPAVNCFPV	0.681 ± 0.021
LVAFNCVVLGKG	0.686 ± 0.014
LVCHDWFSFYMF	0.64 ± 0.035
LVDEGRGLRWSR	0.679 ± 0.0075
LVFPRCAFGFCF	0.6791 ± 0.0047
LVFRSMFFFRLF	0.66 ± 0.017
LVGGFLVSGRAR	0.69 ± 0.051
LVGLNNSFVSKA	0.6448 ± 0.0039
LVGTFTEKFRVC	0.578 ± 0.023
LVHVPVCFLSVL	0.557 ± 0.0021

Sequence	protein stability index
LVLLPLPLPLFP	0.578 ± 0.015
LVMQSVQDDPVF	0.692 ± 0.0081
LVPLPLPPPPPS	0.672 ± 0.0028
LVQPHGSRFGLA	0.644 ± 0.012
LVRPGSTRDKRT	0.736 ± 0.034
LVSLSPCPSSPL	0.671 ± 0.014
LVVEAIRSRAFK	0.6919 ± 0.0028
LVVGFRVGLRGV	0.669 ± 0.035
LVVGGLVLSGNL	0.668 ± 0.057
LVWGQPWKMPVV	0.699 ± 0.012
LWCGGWVCVLGW	0.532 ± 0.013
LWGGAGLRCGGF	0.726 ± 0.017
LWGVGAGPEDVG	0.68 ± 0.014
LWRVRCGLGMSG	0.681 ± 0.15
LYDQTSQDRRVF	0.6974 ± 0.004
LYDSNLILSIPC	0.617 ± 0.14
LYFGVGSICLVS	0.649 ± 0.043
LYHFYTASPCLI	0.536 ± 0.044
LYLLPLCRPFPY	0.692 ± 0.013
LYLRNFGSPFLV	0.65 ± 0.024
LYRILQAPRSSP	0.703 ± 0.079
LYSAHLAPGNAD	0.656 ± 0.039
MCGLVGDVLAVG	0.762 ± 0.1

Sequence	protein stability index
MEAAARRMIKRK	0.6 ± 0.04
MFLVLEGIDSRV	0.65 ± 0.051
MGGGGARAVVVG	0.627 ± 0.021
MGGRAEGWVPVP	0.68 ± 0.15
MGLRDPEWSGDI	0.673 ± 0.018
MGQVMTKQQRKI	0.668 ± 0.016
MGWGALGARGLV	0.683 ± 0.029
MGYDYAPISALF	0.691 ± 0.1
MIKINHRIKIKY	0.7115 ± 0.0039
MKEKTNLETKDT	0.691 ± 0.013
MLLLIDTSGGWS	0.71 ± 0.011
MLRMSVSRGGLL	0.729 ± 0.011
MPFTSDAAALAP	0.689 ± 0.03
MPIKGRHSRSLK	0.66 ± 0.044
MPPRVLSALAPL	0.642 ± 0.0023
MPRRLSLNLDYL	0.6563 ± 0.0064
MRDRDSVDNMDG	0.666 ± 0.025
MRPSLSDAMMSS	0.687 ± 0.055
MRRTFQHQGRAN	0.676 ± 0.031
MRSTFFFLQHRH	0.614 ± 0.013
MSGKIMVLQKEE	0.643 ± 0.013
MSIDQPLLGTGV	0.638 ± 0.034
MSLSYYFSPVYS	0.625 ± 0.044

Sequence	protein stability index
MSRRHDQESIHV	0.673 ± 0.021
MVIYGKEGWRIQ	0.661 ± 0.07
MYSSIFTHVFGV	0.734 ± 0.024
NARGRGAGGAST	0.626 ± 0.048
NASASTLPFPLD	0.71 ± 0.054
NDAKQKRLTFET	0.671 ± 0.048
NDFFVVFSVGEC	0.613 ± 0.041
NDGIKYQSEKRR	0.7 ± 0.02
NDHEQGPTQARG	0.669 ± 0.044
NDQASVLSFRSV	0.664 ± 0.063
NEPQDQLQEQAT	0.665 ± 0.069
NFIKCASDIRID	0.67 ± 0.027
NFPPTPECSFVS	0.643 ± 0.0086
NFTPRKHARQRP	0.736 ± 0.0088
NFTSYDIYLSCS	0.671 ± 0.016
NGCVRNVSSLVF	0.607 ± 0.066
NGGFIGVYICRT	0.73 ± 0.13
NGGKDAVVLGGG	0.636 ± 0.054
NGGSAKVYLGKI	0.652 ± 0.019
NGKFLREKMRWG	0.662 ± 0.036
NGKGECSLESSS	0.677 ± 0.013
NGKKYWQEYGWG	0.686 ± 0.025
NGMKDKTKIAKI	0.701 ± 0.008

Sequence	protein stability index
NGRPGPAEPELW	0.692 ± 0.043
NGVRGRGGQWVQ	0.725 ± 0.03
NGVVAYHVQSFC	0.6 ± 0.011
NHRQPNSTKNRT	0.547 ± 0.044
NHVWGSNRCSSC	0.689 ± 0.04
NIIYKRKKGRRW	0.6889 ± 0.001
NIKIILPWNPPE	0.667 ± 0.013
NIKITVHSTMDM	0.698 ± 0.019
NINHTNLKENKD	0.667 ± 0.0099
NINVSFLSNECR	0.6735 ± 0.0021
NISIFGSRLRVV	0.533 ± 0.034
NITIEGVELERV	0.715 ± 0.029
NKHYIQSHTDPD	0.698 ± 0.023
NKKIKKDKIKGK	0.692 ± 0.031
NKKKKQRMKRNG	0.719 ± 0.12
NKKRKYRKNKRG	0.6096 ± 0.0051
NKKTYHRPTKNY	0.693 ± 0.015
NKRKDEIKPRNV	0.581 ± 0.049
NKRKTKNKERRA	0.65 ± 0.012
NKSPWYYILQPM	0.738 ± 0.082
NKSTAEVKMEIR	0.686 ± 0.064
NKVLHPGGKPLT	0.6637 ± 0.0062
NKWKASRKYRKR	0.723 ± 0.025

Sequence	protein stability index
NLARPTRTFAGV	0.684 ± 0.013
NLCTPRFATDFG	0.629 ± 0.028
NLFDHIHRSTPS	0.761 ± 0.0078
NLIGVVKSEYHR	0.574 ± 0.01
NMLWSLGRGGSC	0.6648 ± 0.0029
NMRQGPLAGLAG	0.748 ± 0.072
NNKSNKKKERKE	0.698 ± 0.053
NNMFFTREYEKL	0.674 ± 0.013
NNMSFLPMLDYT	0.65 ± 0.042
NNQKTKLNEKNC	0.647 ± 0.048
NNVCGIIFRQHH	0.632 ± 0.048
NPARPRPPPRER	0.595 ± 0.057
NPDVYKRNYQHK	0.605 ± 0.035
NPLHGNIRLSPL	0.685 ± 0.046
NPPELPVTENNP	0.821 ± 0.17
NPPSRLPRLPLH	0.728 ± 0.043
NPWYCVWYGAIT	0.626 ± 0.068
NQEIGLRNQGRV	0.69 ± 0.033
NQPSHPRPHAER	0.666 ± 0.045
NRELTAVTFQRY	0.709 ± 0.05
NRKGNKGEKNTK	0.676 ± 0.048
NRPKVNSQERGY	0.666 ± 0.02
